# According to US20220259318A1 (Hoffmann-La Roche, published 2022):
# Substitutions are numbered along the chain they refer to. Several values for one entry are separate records, joined by “and”; a condition that tells them apart may be missing. Equal values may be shown once.
# B1: 5E11_P1AE5723 (antibody, V domains shown)
# VH: EVQLLESGGGLVQPGGSLRLSCAASGFTFSKYAMAWVRQAPGKGLEWVASISTGGVNTYYADSVKGRFTISRDNSKNTLYLQMNSLRAEDTAVYYCATHTGDYFDYWGQGTMVTVSS
# VL: EIVLTQSPGTLSLSPGERATLSCRASQSVSISGINLMNWYQQKPGQQPKLLIYHASILASGIPDRFSGSGSGTDFTLTISRLEPEDFAVYYCQQTRESPLTFGQGTRLEIK
# notes: Humanized 5E11 IgG; PGLALA Fc implied by the CAR-J assay; also called 5E11_VH1c + 5E11_VL2b
# B2: P1AE5718 (antibody, V domains shown)
# VH: B1 VH with V2L, A61R, G66A, S75A
# VL: DIQMTQSPSSLSASVGDRVTITCRASQSVSISGINLMNWYQQKPGKQPKLLIYHASILASGVPSRFSGSGSGTDFTLTISSLQPEDFATYYCQQTRESPLTFGQGTRLEIK
# notes: Humanized 5E11 IgG; PGLALA Fc implied by the CAR-J assay; also called 5E11_VH1b + 5E11_VL3a
# B3: P1AE5730 (antibody, V domains shown)
# VH: B1 VH with V2L, S75A
# VL: B2 VL
# notes: Humanized 5E11 IgG; PGLALA Fc implied by the CAR-J assay; also called 5E11_VH1d + 5E11_VL3a
# B4: 5E11_P1AE5728 (antibody, V domains shown)
# VH: B1 VH with V2L, S75A
# VL: B1 VL with K49R
# notes: Humanized 5E11 IgG; PGLALA Fc implied by the CAR-J assay; also called 5E11_VH1d + 5E11_VL2a
# Columns and labels:
# human GPRC5D [1] = target: T1, human GPRC5D (human, UniProt Q9NZD1 1-345); assay: cell-based or functional assay
# human GPRC5D [2] = target: T1, human GPRC5D; assay: cell-based or functional assay; remark: listed apart in the source
# human GPRC5D [3] = target: T1, human GPRC5D; assay: cell ELISA, CHO hu GPRC5D (EC/IC50 rel)
# Method in brief: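 Stably transfected CHO cells seeded overnight, then incubated 2 h at 4° C with antibody IgGs in 15-point 1:3 dilutions from 30 μg/ml. Cells fixed with 0.05% glutaraldehyde; binding detected with HRP anti-human Ig and TMB, absorbance at 370/492 nm.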
# T1 sequence (Q9NZD1 whole entry): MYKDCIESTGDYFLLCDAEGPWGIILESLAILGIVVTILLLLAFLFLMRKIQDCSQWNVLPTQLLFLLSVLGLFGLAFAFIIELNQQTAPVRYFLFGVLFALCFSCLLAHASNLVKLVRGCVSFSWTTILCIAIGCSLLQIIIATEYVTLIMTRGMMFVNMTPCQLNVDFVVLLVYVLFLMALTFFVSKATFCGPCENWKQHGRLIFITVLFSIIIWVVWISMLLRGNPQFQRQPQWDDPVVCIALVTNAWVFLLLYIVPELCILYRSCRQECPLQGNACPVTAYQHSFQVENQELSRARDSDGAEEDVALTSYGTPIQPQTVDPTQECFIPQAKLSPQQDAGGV
binder,measurement,setting,value
B1,"CAR-J2 EC50 [ng/mL] (PGLALA-CAR-J activation, L363 target cells)",human GPRC5D [1],3.7 ng/mL
same,EC50 values of CAR-J activation,human GPRC5D [2],3.7 ng/mL
same,EC50,human GPRC5D [3],0.006 µg/mL and 0.04 nM
B2,"CAR-J2 EC50 [ng/mL] (PGLALA-CAR-J activation, L363 target cells)",human GPRC5D [1],105 ng/mL
same,EC50 values of CAR-J activation,human GPRC5D [2],105 ng/mL
same,EC50,human GPRC5D [3],0.0121 µg/mL and 0.08 nM
B3,"CAR-J2 EC50 [ng/mL] (PGLALA-CAR-J activation, L363 target cells)",human GPRC5D [1],3.5 ng/mL
same,EC50 values of CAR-J activation,human GPRC5D [2],3.5 ng/mL
same,EC50,human GPRC5D [3],0.008 µg/mL and 0.05 nM
B4,"CAR-J2 EC50 [ng/mL] (PGLALA-CAR-J activation, L363 target cells)",human GPRC5D [1],5.6 ng/mL
same,EC50 values of CAR-J activation,human GPRC5D [2],5.6 ng/mL
same,EC50,human GPRC5D [3],0.0079 µg/mL and 0.05 nM
